We go through 1 molecule from PMC12282171, “VCY mediates inhibition of PFV replication via interaction with the transcription activator Tas” (Journal of Virology, 2025).

For this assay, the target named is His-VCY (human, UniProt O14598 1-125). Description: pull-down; purified His-VCY added to purified GST-Tas or GST coupled to glutathione sepharose, 3 h at 4 °C; western blot. The settings on record: both partners purified.

B1: GST-Tas (natural protein)
chain: MDSYEKEESVASTSGIQDLQTLSELVGPENAGEGELTIAEEPEENPRRPRRYTKREVKCVSYHAYKEIEDKHPQHIKLQDWIPTPEEMSKSLCKRLILCGLYSAEKASEILRMPFTVSWEQSDTDPDCFIVSYTCIFCDAVIHDPMPIRWDPEVGIWVKYKPLRGIVGSAVFIMHKHQRNCSLVKPSTSCSEGPKPRPRHDPVLRCDMFEKHHKPRQKRPRRRSIDNESCASSSDTMANEPGSLCTNPLWNPGPLLSGLLEESSNLPNLEVHMSGGPFWEEVYGDSILGPPSGSGEHSVL
notes: also called recombinant GST-Tas; pGST-Tas; source: E. coli BL21, purified (GST column)
For the molecule B1, the binding result is reported as “binds”.
